As a reminder, the Kd is the constant that tells how readily two partners part at equilibrium. High values mean weaker binding, low ones tighter binding.

The record followed here is US20080254027A1 (published 2008).

The assay concerns the target T1, CD5-His-GST (human, UniProt P06127 25-372).
T1 sequence: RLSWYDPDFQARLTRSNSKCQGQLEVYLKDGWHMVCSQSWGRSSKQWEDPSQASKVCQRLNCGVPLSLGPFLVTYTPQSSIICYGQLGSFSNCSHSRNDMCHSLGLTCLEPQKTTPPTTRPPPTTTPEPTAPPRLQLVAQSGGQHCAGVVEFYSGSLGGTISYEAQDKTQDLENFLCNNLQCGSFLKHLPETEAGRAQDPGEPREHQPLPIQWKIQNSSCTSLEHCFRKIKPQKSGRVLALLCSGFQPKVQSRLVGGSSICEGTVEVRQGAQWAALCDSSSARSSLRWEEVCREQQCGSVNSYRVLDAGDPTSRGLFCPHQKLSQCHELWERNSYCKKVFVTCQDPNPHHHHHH
As to the kind of experiment: Biacore. In general terms: In SPR one partner is held on a chip, and binding of the other changes the refractive index at the surface.

B1: 5D7_H0L0_IgG1_WT (antibody, V domains shown)
VH: QVTLKESGPGILKPSQTLSLTCSFSGFSLSTSGMGVGWIRQPSGKGLEWLAHIWWDDDVYYNPSLKNQLTISKDASRDQVFLKITNLDTADTATYYCVRRRATGTGFDYWGQGTTLTVSS
VL: NIVMTQSHKFMSTSVGDRVSIACKASQDVGTAVAWYQQKPGQSPKLLIYWTSTRHTGVPDRFTGSGSGTDFTLTITNVQSEDLADYFCHQYNSYNTFGSGTRLELKR
B1: the Kd was about 1.5 nM.
